What all share (experiment): BLI
Test [1] deals with hPAD4 R8E–Y435A double mutant (human, UniProt Q9UM07 1-663, R8E | Y435A).
Test [2] deals with hPAD4 N438R (human, UniProt Q9UM07 1-663, N438R).
For test [3], the target named is T1, human protein arginine deiminase 4 (hPAD4), wild type (human, UniProt Q9UM07 1-663, biotin on the N-terminal AviTag).
In test [4] the target is hPAD4 Y435A (human, UniProt Q9UM07 1-663, Y435A).
The target of test [5] is T1, human protein arginine deiminase 4 …. This is another data set of the same source.
Test [6] shares this target. This is another data set of the same source.

Where a chain is given by its changes, count along the chain named. Like-named read-outs stand apart in the source and are kept apart here.

T1 sequence (Q9UM07 whole entry): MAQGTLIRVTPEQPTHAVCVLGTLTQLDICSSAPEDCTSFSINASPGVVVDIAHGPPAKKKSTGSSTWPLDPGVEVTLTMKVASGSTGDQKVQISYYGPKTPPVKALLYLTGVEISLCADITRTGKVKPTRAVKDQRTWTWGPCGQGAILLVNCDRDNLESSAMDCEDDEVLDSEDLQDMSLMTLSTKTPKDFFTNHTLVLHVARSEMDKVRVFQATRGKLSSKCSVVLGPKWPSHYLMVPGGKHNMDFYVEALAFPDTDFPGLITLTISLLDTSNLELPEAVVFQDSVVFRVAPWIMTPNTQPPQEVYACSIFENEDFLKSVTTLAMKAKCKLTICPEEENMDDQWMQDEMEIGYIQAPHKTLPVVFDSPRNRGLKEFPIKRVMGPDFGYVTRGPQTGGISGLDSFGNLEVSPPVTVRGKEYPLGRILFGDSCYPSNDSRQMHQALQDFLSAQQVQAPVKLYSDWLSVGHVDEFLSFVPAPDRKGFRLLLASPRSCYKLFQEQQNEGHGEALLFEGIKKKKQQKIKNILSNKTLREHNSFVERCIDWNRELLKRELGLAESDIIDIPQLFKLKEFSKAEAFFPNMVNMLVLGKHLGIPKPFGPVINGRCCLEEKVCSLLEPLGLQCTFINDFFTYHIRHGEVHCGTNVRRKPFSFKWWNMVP
hPAD4 Y435A, sequence (Q9UM07 whole entry Y435A): as the sequence (Q9UM07 whole entry) above, with Y435A counted along it
hPAD4 R8E–Y435A double mutant, sequence (Q9UM07 whole entry R8E/Y435A): as the sequence (Q9UM07 whole entry) above, with R8E, Y435A counted along it
hPAD4 N438R, sequence (Q9UM07 whole entry N438R): as the sequence (Q9UM07 whole entry) above, with N438R counted along it

B1: hA362 Fab (Fab, V domains shown)
VH: EVQLVESGGGLVQPGGSLRLSCAASGFNVSYYSIHWVRQAPGKGLEWVASISPYYGSTYYADSVKGRFTISADTSKNTAYLQMNSLRAEDTAVYYCARHPYRKGYSGLDYWGQGTLVTVSS
VL: DIQMTQSPSSLSASVGDRVTITCRASQSVSSAVAWYQQKPGKAPKLLIYSASSLYSGVPSRFSGSRSGTDFTLTISSLQPEDFATYYCQQSSYLPLFTFGQGTKVEIK
In the case of B1, the dissociation constant Kd in test [1] worked out at 269 nM; in test [2] it was 1.56 nM; in test [3], 1.7 nM; in test [4], 17.5 nM.

B2: E6 (affinity-matured variant of hI365) (antibody, V domains shown)
VH: EVQLVESGGGLVQPGGSLRLSCAASGFNFYYSIHWVRQAPGKGLEWVASISPYTDRTSYADSVKGRFTISADTSKNTAYLQMNSLRAEDTAVYYCARKHPGRYPNWGFALDYWGQGTLVTVSS
VL: B1 VL with S92M, Y93S, L94S, P95Q, F97V
On to B2, for which the Kd in test [5] came to 1.3 nM.

B3: hA362 IgG (antibody, V domains shown)
VH: B1 VH
VL: B1 VL
B3 showed a dissociation constant (Kd) in test [6] of 0.001 nM.

B4: E3 (affinity-matured variant of hI365) (antibody, V domains shown)
VH: B2 VH with Y30F, R56Y, R102S, N105F
VL: DIQMTQSPSSLSASVGDRVTITCRASQSVSSAVAWYQQKPGKAPKLLIYSASSLYSGVPSRFSGSRSGTDFTLTISSLQPEDFATYYCQQSSSSLVTFGQGTKVEIK
On to B4, for which the dissociation constant (Kd) in test [5] came to 2.4 nM.

B5: hI365 IgG (antibody, V domains shown)
VH: B2 VH with T54S, D55G, R56Y, R102S, N105F, F108W
VL: B4 VL
Turning to B5, the Kd in test [6] is 1.8 nM.

(Values after paper PMC11142921 (2024).)
